Results published in the RNAGym collection of RNA variant scans (doi:10.1073/pnas.2313332121).
This sample holds only a part of the variants without activity.

B1: TPR 5TU (parent)
chain: GGAUCUUCUCGAUCUAACAAAAAAGACAAAUCUGCCACAAAGCUUGAGAGCAUCUUCGGAUGCAGAGGCGGCAGCCUUCGGUGGCGCGAUAGCGCCAACGUUCUCAACUAUGACACGCAAAACGCGUGCUCCGUUGAAUGGAGUUUAUCAUG

Variants of: B1
Assay: polymerase ribozyme fitness, log enrichment relative to wild type (log ratio); higher = more active; in vitro selection for triplet polymerase activity
Method in brief: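 Fitness measures genotype enrichment against wild-type enrichment on a logarithmic scale, with inverse-variance-weighted averaging of replicates. The logarithm is base 2, and genotypes were kept only with ≥10 input reads and ≥1 read per output in Illumina sequencing. The sequenced libraries came from one triplicate in vitro selection round, including frozen incubation at −7 °C, of PCR-built, transcribed mutant libraries of each subunit of a heterodimeric triplet polymerase ribozyme.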

Row | Variant | polymerase ribozyme fitness (log ratio)
1 | A16U C18A A40G G74A G80C G83U G86A A97U | ≤ -4.2
2 | A16G A17U A41U C93U C125U U134G | -4.05
3 | A16U A22G C57A U135A | -3.06
4 | A17G A22G U82C C99A | -2.88
5 | A17G A37U A47U C85U | -1.62
6 | A16G U33G G81A C87G G100A | ≤ -4.2
7 | A16G A17G C57U A64C A91U C95U C118G G124A G126A G133C | ≤ -4.2
8 | A17G A39C A107U | ≤ -4.2
9 | A16U C54G A97C C116G G124U A137C | ≤ -4.2
10 | A16G A17G U56G U61G G68A C72U C114G G143U | ≤ -4.2
11 | A17G A39G U56A C85G A115G | -3.92
12 | A16U U31A G83A C105U | -1.17
13 | A16G G86A | -0.891
14 | A16U U55G C85G C103U A121U | -4.13
15 | A16G C149G | -3.97
16 | A16G C36U A49C G88A C93G A107U G140U G143C | ≤ -4.2
17 | A16G A20C U78A C87U | ≤ -4.2
18 | A16G G126A G143A | -3.34
19 | A17G A23C A97U C114U | ≤ -4.2
20 | A16U C51U C95U | -2.98
21 | A16U G58U | -2.34
22 | A17C G59C U102G C123A | -2.05
23 | A17C G133A U144A A147C | -3.99
24 | A17C A19C A73G C96U C123U C125G | -3.23

Row | Variant | polymerase ribozyme fitness (log ratio)
25 | A16U A17U A26U C27G A49U C54A A66U C85A C116G | -3.74
26 | A17C C95A C103G C108G | ≤ -4.2
27 | A16U G68A C87A G94C G141A | ≤ -4.2
28 | A16G U45A C72U C93G U151A | ≤ -4.2
29 | A16U G50A A60C G83C G141C | ≤ -4.2
30 | A16U A29C C35U A41C G86A A98U C114U G141U U145G | ≤ -4.2
31 | A16G A19U G48A C54A U101G C108A A137C A150C | ≤ -4.2
32 | A17C U55A G59A A60G C96A G143U | -3.41
33 | A16U C35U G92U C116G | -3.21
34 | A16U A98U A122G U146G | -3.26
35 | A16G A22U G94A | -0.896
36 | A16G A21C C27G G59A G67C U145G | ≤ -4.2
37 | A16U A19G C57A | -2.39
38 | A16U G42A U53A C85U C96G A120C | ≤ -4.2
39 | A16U A21G A30U G48C | ≤ -4.2
40 | A17C C35U G74A C76A U78G | ≤ -4.2
41 | A16U C103G | -3.31
42 | A16G U55A G74A U82G C85G | ≤ -4.2
43 | A16G A49U C131U | -1.5
44 | A16G A40C | -0.456
45 | A16G A24U A52C C85A C95U | ≤ -4.2
46 | A16G C27G U44A C79G | ≤ -4.2
47 | A16U C27A A28U C54U C75U G92C G136U | ≤ -4.2
48 | A16G A22U A47C C95A C96U | -3.89

Row | Variant | polymerase ribozyme fitness (log ratio)
49 | A16G U31G A49U | ≤ -4.2
50 | A16G A24U G46U C85G A106C U109A C114U C118G A120G | ≤ -4.2
51 | A16U A52G U104G U134G | ≤ -4.2
52 | A16G A26U C85A C105G C114U G141C U151C | ≤ -4.2
53 | A16U G50C U56A G84C A97U U101A A113C A119G G133U A137U | ≤ -4.2
54 | A17C U53G U55A A121G | -1.71
55 | A17C C57U U82C | -0.0541
56 | A16G A30U U90G G152U | ≤ -4.2
57 | A16U U53A G80U C85U G152U | ≤ -4.2
58 | A16U U31A C38G A41C G62C A120U A142G A147U | ≤ -4.2
59 | A17G A21U C51U U53A C79U G94A A115G | ≤ -4.2
60 | A16G U53G G84U C96G | -3.88
61 | A17G A30G C36A C99A | ≤ -4.2
62 | A16U U53A C75A C93A C103G U130A | ≤ -4.2
63 | A17C A47U G58A G83U G94A G126U | ≤ -4.2
64 | A16G A20U C118U A137U | ≤ -4.2
65 | A16U C85U C87U A115G | -3.52
66 | A16U A41G A47C C76G G88C G94C A110C U134A G140A G141C A147C | ≤ -4.2
67 | A16U G88C | ≤ -4.2
68 | A17C U82A C85A C93U | ≤ -4.2
69 | A16U A20C A91U G141U | ≤ -4.2
70 | A16U C38U A91U C103A | ≤ -4.2
71 | A17C A37C C93G | -2.89
72 | A17C G84C A142G | -3.21

Row | Variant | polymerase ribozyme fitness (log ratio)
73 | A16G C87U | -1.85
74 | A16U C27G A30U C35G G83A C103U | ≤ -4.2
75 | A16U U33C C38U G140U | ≤ -4.2
76 | A16G A20U U33G C85A G94A A150C | ≤ -4.2
77 | A17G A37C A91G C99A A107G U139G G143U U148C | ≤ -4.2
78 | A16U A120U | -2
79 | A16U A120G | -2.64
80 | A16G A23U C72A C87A C93U G126A | ≤ -4.2
81 | A17G A39C G68C C93G | ≤ -4.2
82 | A16U A37U C76G U82G A89G A91G G143U | ≤ -4.2
83 | A16U G58A C93A | -3.46
84 | A17C A47C C95U C116U | -0.195
85 | A16U G124U | -2.37
86 | A17C A26U A49C | ≤ -4.2
87 | A16G C69U C85U C131G A142U | ≤ -4.2
88 | A16G A39U C43G G50U G67C U109A U134A U139C | ≤ -4.2
89 | A16U A23G U148A | ≤ -4.2
90 | A16G A19C G80C C87A A150U | ≤ -4.2
91 | A16U A106G | -1.8
92 | A16G U134A | -3.15
93 | A16G U134G | -3.44
94 | A16U A22C | -2.41
95 | A16G G42A A52G C95U C96A C99G | ≤ -4.2
96 | A16G G48A A122U C149U | -3.58

Row | Variant | polymerase ribozyme fitness (log ratio)
97 | A17G A24U A26U G58A | -4.02
98 | A17C A21G A40U G86U A122U | -1.48
99 | A17C A20C U53G G84A | -2.28
100 | A16G A39C | -2.62
101 | A16U U33A G42A C93U G140A | ≤ -4.2
102 | A17C A91U | ≤ -4.2
103 | A16G A37U A60U G71C G84A C116A G124C U146G | ≤ -4.2
104 | A16U A17G G59C U77G G94U | -3.85
105 | A16G A19G G84U A122U | -3.73
106 | A16U A19G U31A C38U G42C U44G G59U C96G | ≤ -4.2
107 | A17C A40U U53A C76G C93U U146G | ≤ -4.2
108 | A16G G42C C54G G70A C87A C99U A113C G141U U151C | ≤ -4.2
109 | A16G U78A C93G | ≤ -4.2
110 | A16G G94A G143C | -3.22
111 | A16U G58U C69U U78G G80C C96A G141U | ≤ -4.2
112 | A17G A29C C32G G48C | ≤ -4.2
113 | A16U G133C U146A | -3.79
114 | A16G A30U C38A C96G A97C C105G A107U A110U | ≤ -4.2
115 | A16U G70C G81U A89G | ≤ -4.2
116 | A17C G81U C85A C95U C105G A115U | -3.03
117 | A16G A20U C32A U45A A47C G83C C93G G140A | ≤ -4.2
118 | A17G A23U A26U C116G A138C A142C | ≤ -4.2
119 | A16U A52U G74A C87A A119U U148G | ≤ -4.2
120 | A16U G50A C76U | -3.4

Row | Variant | polymerase ribozyme fitness (log ratio)
121 | A16U A19U C103G | -4.18
122 | A16G C27A C35G C43A U56G G58C C93U G117C A119C A121U G136A | ≤ -4.2
123 | A17C C95U A119U A150G | -1.7
124 | A17C G68C C85G C125U G143C | ≤ -4.2
125 | A16G A37U U134G | -3.68
126 | A16U C129A | -3.81
127 | A16U G50A C95G C118G | ≤ -4.2
128 | A17C A40C G83C U109G | -3.6
129 | A16U C63U | -1.7
130 | A16G C54U C76A C93U A97G C103U C123U G128C | ≤ -4.2
131 | A16U A30C U61A C96U G140U | ≤ -4.2
132 | A16G A23C U55G G88A C108A U111C A122C | ≤ -4.2
133 | A16U U56G G84A U102A G141U | -3.81
134 | A16G U82A U145G | -1.4
135 | A17C A21U A29U U53G A73G G94A | ≤ -4.2
136 | A16U G83C C99A | -3.97
137 | A16U G94C | -2.55
138 | A16U A47C | -2.04
139 | A16U A52G A64U U77A C87A G143C | ≤ -4.2
140 | A17C C99A | -0.000978
141 | A17C A89U | 0.471
142 | A16G C57A G86C G124U | -3.24
143 | A16G G94U C95A U134G | -3.52
144 | A17G A19U U53A U56G A60U C69G U111G A142G | ≤ -4.2

Row | Variant | polymerase ribozyme fitness (log ratio)
145 | A16G A41G U53G A73U G88A C125U G133U | ≤ -4.2
146 | A16U U55A A91G G117U | ≤ -4.2
147 | A17C A26C C87U | -1.83
148 | A16U U31A A64U C85U A91G C131A | ≤ -4.2
149 | A16U A30C A47G G58A U111A | ≤ -4.2
150 | A16G A17G C18A G58C A60G C95A U144C A150C | ≤ -4.2
151 | A16G C43A C57G G59U G70U G88U C99U A107G | ≤ -4.2
152 | A16G G94A U104A | -0.709
153 | A17C U31C G50C C51A | -0.997
154 | A17C A37C A52U G83U | -3.08
155 | A16U A17C G50A U56A C87U G88A G117U | ≤ -4.2
156 | A16G A20U C99U U102G | ≤ -4.2
157 | A17G A23U U55G A66C | ≤ -4.2
158 | A16U U56A G62A U82G C85U A142G | -4.16
159 | A17G A19U C93U U102C G136A U148A | ≤ -4.2
160 | A16U A150G | -2.95
161 | A16U C18G A21G A22U C51U U53G G68A G81C | ≤ -4.2
162 | A16G U31A A39U C132U G136A | -3.4
163 | A17C C125G G126A | -3.65
164 | A17C A23U U104C | ≤ -4.2
165 | A17C A29C A66U G67A A91G C96U A115G C116A | ≤ -4.2
166 | A17C U44G G88A C95G C103U G141C | ≤ -4.2
167 | A16U U139G G140U | ≤ -4.2
